# Positions count from the first letter of the chain named.
# T1: human γc on cells (KHYG-1, Ramos, HPB-ALL, Jurkat, PBMC) (human) (UniProt P31785)
# T1 sequence (looked up): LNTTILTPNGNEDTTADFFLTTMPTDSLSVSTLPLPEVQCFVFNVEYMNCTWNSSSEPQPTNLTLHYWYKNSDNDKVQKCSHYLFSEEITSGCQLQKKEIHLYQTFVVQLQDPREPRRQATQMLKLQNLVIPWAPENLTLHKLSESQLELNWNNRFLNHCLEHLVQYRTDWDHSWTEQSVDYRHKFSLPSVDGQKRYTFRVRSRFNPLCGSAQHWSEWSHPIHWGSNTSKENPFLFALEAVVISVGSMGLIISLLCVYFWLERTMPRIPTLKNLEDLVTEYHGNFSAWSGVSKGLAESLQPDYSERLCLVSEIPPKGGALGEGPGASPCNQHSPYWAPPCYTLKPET
# B1: SM-05A anti-γc ScFv (scFv, part only; not given: linker and E-tag, not shown: small tags and cut ends)
# scFv (part 1 of 2), part: EVQLQQSGPELVKPGASVKISCKTSGYTFTEYTMHWVKQSHGKSLEWIGGIDPYNGGATYNQRFKGKATLTVDKSSSTAYMEFRSLTSEDSAVYYCARRRLYYGNALDYWGQGTSVTVSS
# scFv (part 2 of 2), part: DVLMTQTPLSLPVSLGDQASISCRSSQSLVHSNGNTYLHWYLQRPGQSPKLLIYKVSSRFSGVPDRFSGSGSGTDFTLKISRVEAEDLGVYFCSQTTHVPFTFGSGTKLEIKR
# B2: SM-05I anti-γc ScFv (scFv, part only; not given: linker and E-tag, not shown: small tags and cut ends)
# scFv (part 1 of 2), part: QVQLQQSGAELAKPGASVKLSCKASGYTFTEYTMHWVKQSHGESLDWIGGIDPNTGGATYNQRFKGKATMTVDKSSSTAYMEFRSLTSEDSAVYYCARRRRYYGYALDNWGQGTSVTVSS
# scFv (part 2 of 2), part: B1 scFv (part 2 of 2), part with L29I, H39E, R44K, S58N, F92Y, S94F, T96D, T97S
# B3: SM-05C anti-γc ScFv (scFv, part only; not given: linker and E-tag, not shown: small tags and cut ends)
# scFv (part 1 of 2), part: QVQLQQSGPELVKPGASVKIFCKTSGYTFTEYTMHWVKQSHGESLEWIGGIDPNTGGATYNQKFKGKATLTADKSSSTAYMELRSLTSEDSAVYYCARRRRYYGYAMDYWGQGTSVTVSS
# scFv (part 2 of 2), part: B1 scFv (part 2 of 2), part with L3V, R44K, S58N, V90I, F92Y, S94F, T96D, T97S
# B4: SM-05E anti-γc ScFv (scFv, part only; not given: linker and E-tag, not shown: small tags and cut ends)
# scFv (part 1 of 2), part: B3 scFv (part 1 of 2), part with Q1E, Q3H, A58V, M107L
# scFv (part 2 of 2), part: B1 scFv (part 2 of 2), part with L29I, H39E, R44K, S58N, R82S, T96S, T102M
# B5: SM-05F anti-γc ScFv (scFv, part only; not given: linker and E-tag, not shown: small tags and cut ends)
# scFv (part 1 of 2), part: B3 scFv (part 1 of 2), part with Q1E, A58V, M107L
# scFv (part 2 of 2), part: DVLMTQTPLSLPVSLGDQASISCRSSQSIVHNNGNTYLEWYLQKPGQSPKLLIYKVSNRFFGVPDRFSGSGSGTYFTLKISRVEAEDLGVYYCFQGSHVPWTFGGGTKLEIKR
# B6: SM-05B anti-γc ScFv (scFv, part only; not given: linker and E-tag, not shown: small tags and cut ends)
# scFv (part 1 of 2), part: B3 scFv (part 1 of 2), part with M107L
# scFv (part 2 of 2), part: B5 scFv (part 2 of 2), part with N32S, F61S, Y75D, Y92F, F94S, G96S, S97T
# B7: SM-05H anti-γc ScFv (scFv, part only; not given: linker and E-tag, not shown: small tags and cut ends)
# scFv (part 1 of 2), part: B3 scFv (part 1 of 2), part with V18M, K19N, K67Q, M107L
# scFv (part 2 of 2), part: B1 scFv (part 2 of 2), part with S28N, L29I, V30I, H39E, R44K, S58N, S68T, T96S, S105G
# Molecular target: T1, human γc on cells (KHYG-1, Ramos, HPB-ALL, Jurkat, PBMC) (human)
# Test: cell-based or functional assay
"p-STAT3 inhibition (%), IL-9 induced, Jurkat T cells, flow cytometry [%]","p-STAT3 inhibition (%), IL-21 induced, Ramos B cells, flow cytometry [%]","p-STAT5 inhibition (%), IL-7 induced, HPB-ALL T cells, flow cytometry [%]","p-STAT5 inhibition (%), IL-15 induced, KHYG-1 NK cells, flow cytometry [%]","p-STAT6 inhibition (%), IL-4 induced, Ramos B cells, flow cytometry [%]",Binder
80.6,47.3,100,48.6,86.1,B1
100,91,–,38.9,74.1,B2
97.9,29.1,100,46,46,B3
74.3,60.6,98.3,47.8,85.6,B4
92.4,79,99.4,43.7,46,B5
82.6,13.8,94.5,47.1,77,B6
93.1,70.6,100,51.7,63.4,B7
